Measurements as given in US20220025010A1 (ANTAG THERAPEUTICS, published 2022).
*1 amine or outer side, *2 acyl side, *3 side chain or, on linkers, in order; H or OH if unused. Where no end group is shown, it is not given here. Side-chain parts run from the residue outwards. The star is where a group is joined. C16 diacid = O=C(O)CCCCCCCCCCCCCCC(=O)*; γGlu = O=C(O)[C@H](CCC(=O)[*:2])N[*:1]; AEEA = NCCOCCOCC(=O)O

B1: AT514 (peptide)
peptide: GGTFISDYSIAMDRIK([AEEA-AEEA-γGlu-C16 diacid])QQDFVNWLLAQR-NH2
modifications: N-terminus assumed
SMILES: CC[C@H](C)[C@H](NC(=O)[C@H](CO)NC(=O)[C@H](Cc1ccc(O)cc1)NC(=O)[C@H](CC(=O)O)NC(=O)[C@H](CO)NC(=O)[C@@H](NC(=O)[C@H](Cc1ccccc1)NC(=O)[C@@H](NC(=O)CNC(=O)CN)[C@@H](C)O)[C@@H](C)CC)C(=O)N[C@@H](C)C(=O)N[C@@H](CCSC)C(=O)N[C@@H](CC(=O)O)C(=O)N[C@@H](CCCNC(=N)N)C(=O)N[C@H](C(=O)N[C@@H](CCCCNC(=O)COCCOCCNC(=O)COCCOCCNC(=O)CC[C@H](NC(=O)CCCCCCCCCCCCCCC(=O)O)C(=O)O)C(=O)N[C@@H](CCC(N)=O)C(=O)N[C@@H](CCC(N)=O)C(=O)N[C@@H](CC(=O)O)C(=O)N[C@@H](Cc1ccccc1)C(=O)N[C@H](C(=O)N[C@@H](CC(N)=O)C(=O)N[C@@H](Cc1c[nH]c2ccccc12)C(=O)N[C@@H](CC(C)C)C(=O)N[C@@H](CC(C)C)C(=O)N[C@@H](C)C(=O)N[C@@H](CCC(N)=O)C(=O)N[C@@H](CCCNC(=N)N)C(N)=O)C(C)C)[C@@H](C)CC
B2: AT512 (peptide)
peptide: PGTFISDYSIAMDRIKQQDFVNWLLAQR
HELM: PEPTIDE1{P.G.T.F.I.S.D.Y.S.I.A.M.D.R.I.K.Q.Q.D.F.V.N.W.L.L.A.Q.R.[am]}|PEPTIDE2{[O=C(O)CCCCCCCCCCCCCCC(=O)[*:2]].[gGlu].[O=C(COCCOCCN[*:1])[*:2]]}$PEPTIDE1,PEPTIDE2,16:R3-3:R2$$$V2.0; N-terminus assumed
SMILES: CC[C@H](C)[C@H](NC(=O)[C@H](CO)NC(=O)[C@H](Cc1ccc(O)cc1)NC(=O)[C@H](CC(=O)O)NC(=O)[C@H](CO)NC(=O)[C@@H](NC(=O)[C@H](Cc1ccccc1)NC(=O)[C@@H](NC(=O)CNC(=O)[C@@H]1CCCN1)[C@@H](C)O)[C@@H](C)CC)C(=O)N[C@@H](C)C(=O)N[C@@H](CCSC)C(=O)N[C@@H](CC(=O)O)C(=O)N[C@@H](CCCNC(=N)N)C(=O)N[C@H](C(=O)N[C@@H](CCCCNC(=O)COCCOCCNC(=O)CC[C@H](NC(=O)CCCCCCCCCCCCCCC(=O)O)C(=O)O)C(=O)N[C@@H](CCC(N)=O)C(=O)N[C@@H](CCC(N)=O)C(=O)N[C@@H](CC(=O)O)C(=O)N[C@@H](Cc1ccccc1)C(=O)N[C@H](C(=O)N[C@@H](CC(N)=O)C(=O)N[C@@H](Cc1c[nH]c2ccccc12)C(=O)N[C@@H](CC(C)C)C(=O)N[C@@H](CC(C)C)C(=O)N[C@@H](C)C(=O)N[C@@H](CCC(N)=O)C(=O)N[C@@H](CCCNC(=N)N)C(N)=O)C(C)C)[C@@H](C)CC
B3: AT516 (peptide)
peptide: SGTFISDYSIAMDRIK([AEEA-AEEA-γGlu-C16 diacid])QQDFVNWLLAQR-NH2
modifications: N-terminus assumed
SMILES: CC[C@H](C)[C@H](NC(=O)[C@H](CO)NC(=O)[C@H](Cc1ccc(O)cc1)NC(=O)[C@H](CC(=O)O)NC(=O)[C@H](CO)NC(=O)[C@@H](NC(=O)[C@H](Cc1ccccc1)NC(=O)[C@@H](NC(=O)CNC(=O)[C@@H](N)CO)[C@@H](C)O)[C@@H](C)CC)C(=O)N[C@@H](C)C(=O)N[C@@H](CCSC)C(=O)N[C@@H](CC(=O)O)C(=O)N[C@@H](CCCNC(=N)N)C(=O)N[C@H](C(=O)N[C@@H](CCCCNC(=O)COCCOCCNC(=O)COCCOCCNC(=O)CC[C@H](NC(=O)CCCCCCCCCCCCCCC(=O)O)C(=O)O)C(=O)N[C@@H](CCC(N)=O)C(=O)N[C@@H](CCC(N)=O)C(=O)N[C@@H](CC(=O)O)C(=O)N[C@@H](Cc1ccccc1)C(=O)N[C@H](C(=O)N[C@@H](CC(N)=O)C(=O)N[C@@H](Cc1c[nH]c2ccccc12)C(=O)N[C@@H](CC(C)C)C(=O)N[C@@H](CC(C)C)C(=O)N[C@@H](C)C(=O)N[C@@H](CCC(N)=O)C(=O)N[C@@H](CCCNC(=N)N)C(N)=O)C(C)C)[C@@H](C)CC
B4: AT518 (peptide)
peptide: PGTFISDYSIAMDRIK([AEEA-AEEA-γGlu-C16 diacid])QQDFVNWLLAQR-NH2
modifications: N-terminus assumed
SMILES: CC[C@H](C)[C@H](NC(=O)[C@H](CO)NC(=O)[C@H](Cc1ccc(O)cc1)NC(=O)[C@H](CC(=O)O)NC(=O)[C@H](CO)NC(=O)[C@@H](NC(=O)[C@H](Cc1ccccc1)NC(=O)[C@@H](NC(=O)CNC(=O)[C@@H]1CCCN1)[C@@H](C)O)[C@@H](C)CC)C(=O)N[C@@H](C)C(=O)N[C@@H](CCSC)C(=O)N[C@@H](CC(=O)O)C(=O)N[C@@H](CCCNC(=N)N)C(=O)N[C@H](C(=O)N[C@@H](CCCCNC(=O)COCCOCCNC(=O)COCCOCCNC(=O)CC[C@H](NC(=O)CCCCCCCCCCCCCCC(=O)O)C(=O)O)C(=O)N[C@@H](CCC(N)=O)C(=O)N[C@@H](CCC(N)=O)C(=O)N[C@@H](CC(=O)O)C(=O)N[C@@H](Cc1ccccc1)C(=O)N[C@H](C(=O)N[C@@H](CC(N)=O)C(=O)N[C@@H](Cc1c[nH]c2ccccc12)C(=O)N[C@@H](CC(C)C)C(=O)N[C@@H](CC(C)C)C(=O)N[C@@H](C)C(=O)N[C@@H](CCC(N)=O)C(=O)N[C@@H](CCCNC(=N)N)C(N)=O)C(C)C)[C@@H](C)CC
B5: AT508 (peptide)
peptide: GGTFISDYSIAMDRIKQQDFVNWLLAQR
HELM: PEPTIDE1{G.G.T.F.I.S.D.Y.S.I.A.M.D.R.I.K.Q.Q.D.F.V.N.W.L.L.A.Q.R.[am]}|PEPTIDE2{[O=C(O)CCCCCCCCCCCCCCC(=O)[*:2]].[gGlu].[O=C(COCCOCCN[*:1])[*:2]]}$PEPTIDE1,PEPTIDE2,16:R3-3:R2$$$V2.0; N-terminus assumed
SMILES: CC[C@H](C)[C@H](NC(=O)[C@H](CO)NC(=O)[C@H](Cc1ccc(O)cc1)NC(=O)[C@H](CC(=O)O)NC(=O)[C@H](CO)NC(=O)[C@@H](NC(=O)[C@H](Cc1ccccc1)NC(=O)[C@@H](NC(=O)CNC(=O)CN)[C@@H](C)O)[C@@H](C)CC)C(=O)N[C@@H](C)C(=O)N[C@@H](CCSC)C(=O)N[C@@H](CC(=O)O)C(=O)N[C@@H](CCCNC(=N)N)C(=O)N[C@H](C(=O)N[C@@H](CCCCNC(=O)COCCOCCNC(=O)CC[C@H](NC(=O)CCCCCCCCCCCCCCC(=O)O)C(=O)O)C(=O)N[C@@H](CCC(N)=O)C(=O)N[C@@H](CCC(N)=O)C(=O)N[C@@H](CC(=O)O)C(=O)N[C@@H](Cc1ccccc1)C(=O)N[C@H](C(=O)N[C@@H](CC(N)=O)C(=O)N[C@@H](Cc1c[nH]c2ccccc12)C(=O)N[C@@H](CC(C)C)C(=O)N[C@@H](CC(C)C)C(=O)N[C@@H](C)C(=O)N[C@@H](CCC(N)=O)C(=O)N[C@@H](CCCNC(=N)N)C(N)=O)C(C)C)[C@@H](C)CC
B6: AT510 (peptide)
peptide: SGTFISDYSIAMDRIKQQDFVNWLLAQR
HELM: PEPTIDE1{S.G.T.F.I.S.D.Y.S.I.A.M.D.R.I.K.Q.Q.D.F.V.N.W.L.L.A.Q.R.[am]}|PEPTIDE2{[O=C(O)CCCCCCCCCCCCCCC(=O)[*:2]].[gGlu].[O=C(COCCOCCN[*:1])[*:2]]}$PEPTIDE1,PEPTIDE2,16:R3-3:R2$$$V2.0; N-terminus assumed
SMILES: CC[C@H](C)[C@H](NC(=O)[C@H](CO)NC(=O)[C@H](Cc1ccc(O)cc1)NC(=O)[C@H](CC(=O)O)NC(=O)[C@H](CO)NC(=O)[C@@H](NC(=O)[C@H](Cc1ccccc1)NC(=O)[C@@H](NC(=O)CNC(=O)[C@@H](N)CO)[C@@H](C)O)[C@@H](C)CC)C(=O)N[C@@H](C)C(=O)N[C@@H](CCSC)C(=O)N[C@@H](CC(=O)O)C(=O)N[C@@H](CCCNC(=N)N)C(=O)N[C@H](C(=O)N[C@@H](CCCCNC(=O)COCCOCCNC(=O)CC[C@H](NC(=O)CCCCCCCCCCCCCCC(=O)O)C(=O)O)C(=O)N[C@@H](CCC(N)=O)C(=O)N[C@@H](CCC(N)=O)C(=O)N[C@@H](CC(=O)O)C(=O)N[C@@H](Cc1ccccc1)C(=O)N[C@H](C(=O)N[C@@H](CC(N)=O)C(=O)N[C@@H](Cc1c[nH]c2ccccc12)C(=O)N[C@@H](CC(C)C)C(=O)N[C@@H](CC(C)C)C(=O)N[C@@H](C)C(=O)N[C@@H](CCC(N)=O)C(=O)N[C@@H](CCCNC(=N)N)C(N)=O)C(C)C)[C@@H](C)CC

Biological target: T1, human GIP receptor (human, UniProt P48546 22-466)
T1 sequence (looked up): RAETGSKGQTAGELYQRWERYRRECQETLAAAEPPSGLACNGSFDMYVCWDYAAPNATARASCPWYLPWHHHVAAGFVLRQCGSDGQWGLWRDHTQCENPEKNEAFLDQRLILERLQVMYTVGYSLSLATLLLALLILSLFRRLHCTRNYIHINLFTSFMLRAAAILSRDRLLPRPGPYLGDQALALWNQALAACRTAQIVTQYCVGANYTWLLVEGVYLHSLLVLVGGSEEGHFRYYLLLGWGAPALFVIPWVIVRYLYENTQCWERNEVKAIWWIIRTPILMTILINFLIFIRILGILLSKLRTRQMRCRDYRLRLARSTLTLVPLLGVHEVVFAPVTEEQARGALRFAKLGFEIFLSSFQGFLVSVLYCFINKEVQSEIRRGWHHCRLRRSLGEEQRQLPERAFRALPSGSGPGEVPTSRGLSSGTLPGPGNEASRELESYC
Test: cell-based or functional assay

Binder	CisBio cAMP agonism % Efficacy [%]	CisBio cAMP antagonism % inhib [%]	CisBio cAMP antagonism IC50 [nM]	CisBio cAMP antagonism pIC50	DiscoveRx cAMP antagonism % inhib [%]	DiscoveRx cAMP antagonism IC50 [nM]	DiscoveRx cAMP antagonism log IC50 [log M]	DiscoveRx cAMP agonism Emax
B1	0	86	31.6	7.5	80	39	-7.4	–
B2	0	73	79.4	7.1	80	168	-6.8	–
B3	0	88	27.1	7.6	100	31	-7.5	–
B4	0	71	85.8	7.1	100	346	-6.5	5
B5	0	89	92.6	7	100	23	-7.6	–
B6	2	87	58.4	7.2	100	30	-7.5	–
